Measurements taken from the supplement of paper PMC12042874.
± gives the uncertainty stated by the source.

Experiment: amyloid nucleation score (Sup35N fusion, yeast selection) (log enrichment); library NNK1; higher = more nucleation; inactive = no reads after selection
Procedure, shortened: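 Yeast lacking psi expressed peptides of 20 random codons fused to Sup35N, received 100 μM copper sulfate for 24 hours, and were then grown for 7 days at 30°C on medium lacking adenine and uracil. Illumina sequencing of input and output plasmid inserts provided the reads. Nucleation scores are DiMSum log enrichments of output over input, centred on the mode of non-aggregating sequences. Any sequence with under 100 input reads was excluded.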

| Substance | amyloid nucleation score |
| --- | --- |
| ISFCDGRSCIDLIAVRCFRG | -0.909 ± 0.26 |
| ISFLFMCYLWQGNNS | 6.24 ± 0.066 |
| ISGIECQYTNGRRWGPPS | -0.323 ± 0.81 |
| ISGLNV | -0.372 ± 0.51 |
| ISHKQITTDSSNTVRVYGGN | -0.122 ± 1.6 |
| ISICYRIEKRE | inactive |
| ISLGCNDSGLRIG | -0.935 ± 0.84 |
| ISLISYFFSFLWLYYYFFEF | 1.06 ± 0.28 |
| ISLVICGFYGLAEMVDNSQN | 7.51 ± 0.077 |
| ISNWDVLSCMTQDIGVMTLL | -0.092 ± 0.82 |
| ISSQFGAKTIFPRSVPPQAI | -0.562 ± 0.35 |
| ISSWTHVW | 1.23 ± 0.85 |
| ISVHHFR | 0.282 ± 0.57 |
| ISVKHKFPGANSSVRWDRFW | 3.47 ± 0.11 |
| ISVMEFFVISGFTNWVKCFV | 1.06 ± 0.31 |
| ISVVLWYDRALARCPSPDAP | 0.764 ± 0.49 |
| ISYVSVS | 0.073 ± 0.41 |
| ITFLLRSFRVHS | inactive |
| ITFLRSTIPSVRTRQRLHEL | 0.783 ± 0.4 |
| ITFTHDNISYKIRTPFAKSL | 1.55 ± 0.26 |
| ITGFKFS | 0.698 ± 0.3 |
| ITLNWKIAEFSRCTVQLQNL | 6.324 ± 0.061 |
| ITLVDVVG | 0.082 ± 0.34 |
| ITNCEAEEPDCWPDE | -0.357 ± 0.35 |
| ITSYSFIRSNGSVMGSWGSV | -0.092 ± 0.65 |

| Substance | amyloid nucleation score |
| --- | --- |
| ITWFVYGPLGWMWGFLRPTA | 0.019 ± 0.62 |
| ITYIGWQGSNLYWLFTTTLV | -1.12 ± 1.9 |
| ITYYVNFDFCQGSLARVWLC | 5.01 ± 0.059 |
| IVCFM | -0.377 ± 0.6 |
| IVEGVPGTRPHVLAKCSDEC | 0.232 ± 0.3 |
| IVFLKLWEQVGWTVIDNLGV | -0.552 ± 1.4 |
| IVNVAGNV | 0.803 ± 0.45 |
| IVRNGQATWSWILRGPSWVG | -1.32 ± 0.48 |
| IVRSAVRLELSGLPRCQGIS | -0.065 ± 0.95 |
| IVSTMCPRTDGVPCDNF | -0.035 ± 0.36 |
| IVTKGGLNNVCAVYLCYVGS | 6.46 ± 0.065 |
| IVVFSIYYVCSDGGPRVTRR | 1.43 ± 0.3 |
| IVVYVCIVGNNAPSLDAKSV | 0.923 ± 0.23 |
| IWAHVPTSRYEILVVFSG | 0.253 ± 0.45 |
| IWEFSWLYMLKVMRSGFSYN | -0.282 ± 0.44 |
| IWKSSRGPLIGLVVLDIARR | 1.01 ± 0.79 |
| IWMTGVLLNP | -0.223 ± 0.29 |
| IWNSVARFRYSSMGFVVSAV | -0.702 ± 1.7 |
| IWPYLGSASVL | 1.73 ± 0.35 |
| IWYYSSAQLDCFPYNSTMQE | 0.8 ± 0.93 |
| IYACRGQRVMRTRIKCVVIW | 0.525 ± 0.72 |
| IYASSLTDGFTVVWCLNQY | 5.05 ± 0.07 |
| IYDIEEDLCSVSVSGKESWV | -0.307 ± 0.47 |
| IYFKIVILLRSSFFL | inactive |
| IYKLLGRVKSMMFLWYTVHS | -0.527 ± 0.52 |

| Substance | amyloid nucleation score |
| --- | --- |
| IYRFQWPWDMLMYCWTLMSV | -0.776 ± 0.93 |
| IYRLDTI | -0.864 ± 0.75 |
| IYVFSALRCTGTEVWYRLVT | -1.2 ± 1.4 |
| IYVWKTQ | -0.242 ± 0.5 |
| IYYGQGICLVFAFNLLCNVL | 6.261 ± 0.048 |
| KAFATMLNRLEVGTLGRG | -1.36 ± 1.9 |
| KAFRMLGGFNSYRNFNIILK | 3.96 ± 0.079 |
| KAMCYKMSFCNYDSRVYTED | 4.53 ± 0.06 |
| KANCCCVSHWCCGYMQ | 4.63 ± 0.052 |
| KCFSGYWVLARLRVKFLRVG | -0.275 ± 0.53 |
| KCTLYLQFNIEHGCAIFEDK | 2.06 ± 0.64 |
| KCYGVETTYALA | 0.875 ± 0.97 |
| KCYTMHWPGS | -1.07 ± 1.7 |
| KDEARRGLTLCPTGKDILDY | -0.026 ± 0.47 |
| KDIYKRFFWYYSKKVCGYGA | -0.172 ± 0.25 |
| KDVFPILGFCSAYLPYAWSA | -0.474 ± 0.29 |
| KDVLVRFMYLG | -0.21 ± 0.68 |
| KEDIVLACIGSVKHVRAQWR | 5.97 ± 0.081 |
| KETLGIQ | 1.19 ± 0.52 |
| KEYNNPRLKLTMRRFAAKS | 0.539 ± 0.69 |
| KFDLYRTWCSSLRFGRYWRV | 1.23 ± 0.59 |
| KFFFKSSNDVIKGVHNRTIR | -0.404 ± 0.49 |
| KFIIAGNLNQKSTSWV | 2.23 ± 0.086 |
| KFIIVLILDCITIHHSVVVS | -0.819 ± 0.67 |
| KFILRYMAWTRVDAVVSKPY | -0.496 ± 0.38 |

| Substance | amyloid nucleation score |
| --- | --- |
| KFLLNRVLTDMDLYT | 0.135 ± 0.37 |
| KFVWVIAVDVDSRCKFCCGS | 0.354 ± 0.82 |
| KGAVFVPETAPLI | 0.93 ± 1 |
| KGGSFVGLSTVQYLLASYAL | -0.153 ± 1.3 |
| KGKTNGVV | -0.44 ± 0.48 |
| KGNRGQ | inactive |
| KGQSRHVSECVGWVSNVASL | 0.461 ± 0.73 |
| KGTGRLIRLASAWAGMGMHL | -0.332 ± 1.1 |
| KHAYFSLIRVSNWKWNSVRV | -0.027 ± 0.56 |
| KHSPSDYPERLHHNFYIERI | inactive |
| KHYFCKMSV | -0.029 ± 0.37 |
| KIPYVFFGKRTGVSLFRMFD | 0.202 ± 0.56 |
| KKFRVGVDLSRCTLGLENYK | 4.3 ± 0.059 |
| KKYVMSNVTCVE | 0.934 ± 0.47 |
| KLFSWADHGGEGFEWMQLTT | -0.026 ± 0.3 |
| KLGCYTL | 0.367 ± 0.81 |
| KLKGG | -0.27 ± 0.3 |
| KLLNRTMRTMVSVSRVM | 0.738 ± 0.72 |
| KLMSEFTKFVFSLLSSNKSH | -0.457 ± 0.31 |
| KLSFK | -0.227 ± 1.9 |
| KLVDAGFVD | 0.759 ± 0.35 |
| KLWPSMSFLNCLWCIRERQL | 4.48 ± 0.081 |
| KLYLVVRMTGQPPSGMACVL | 0.142 ± 1.2 |
| KMEPGPRAKALGTNRRFLLK | inactive |
| KMGWLRH | -0.566 ± 0.5 |

| Substance | amyloid nucleation score |
| --- | --- |
| KMRCDGLEQRLRSQSDLLAP | 0.374 ± 0.45 |
| KMVLF | 0.927 ± 0.49 |
| KNGRWAWFTSRAHCFGYNFT | -1.14 ± 0.82 |
| KNPRGENIFLPCLRMGKHLL | -0.776 ± 1.9 |
| KNSLTTKVLLCTLAATL | 0.603 ± 0.73 |
| KNTCKQMV | 0.242 ± 0.57 |
| KNVSLRYILAYCRHYKLTHG | 0.19 ± 1.2 |
| KPEFVNWIC | 0.083 ± 0.32 |
| KPKVVNMVEGLRGFCGLLDL | -0.602 ± 0.94 |
| KPYIFYFINVYCEA | 5.917 ± 0.056 |
| KQLDINRLTSDMS | inactive |
| KQNSKLFLIFIGNALGQVTV | 5.09 ± 0.064 |
| KRCFVLWLHRLWVGVNVFAD | 0.237 ± 0.25 |
| KRCSFWQTRTVELSFGHPVL | -1.23 ± 2.7 |
| KRCSYRS | 0.07 ± 0.6 |
| KRLHRGCWEVGSRGSLKLVN | -1.14 ± 1.6 |
| KRLWLKLSTVE | 0.32 ± 0.32 |
| KRMDKPWTPGYTAMHWVDNM | 0.612 ± 0.52 |
| KRNRVAIILWICNNYYEWNN | -0.747 ± 0.39 |
| KRPSSFVEFFMLWRSKAR | 0.947 ± 0.43 |
| KRSTVRHYYRARCFITVAMV | -0.365 ± 0.45 |
| KRVANDWEYGFGYNPTVVGR | 0.295 ± 0.46 |
| KSAANTINIRPENETVPRFQ | 0.556 ± 0.59 |
| KSESDL | inactive |
| KSFSIYTVIVV | 1.2 ± 0.26 |

| Substance | amyloid nucleation score |
| --- | --- |
| KSMHEVWWLLQSEGERDL | 0.712 ± 0.49 |
| KSPRVSVGTASVSWRKKFTW | 0.2 ± 0.74 |
| KSQGEVFRVAREGNFIIEES | -1.07 ± 1.2 |
| KSQTRDIFRGDVMC | -0.991 ± 0.71 |
| KSQVVMRDVEPATNIV | -0.153 ± 0.69 |
| KSSYLFMTSWPYWVRGMSYA | 0.01 ± 0.46 |
| KSVAIAPYDGCVMFSKQTWG | -0.025 ± 0.63 |
| KSYLLGDGTFNSCTW | 0.107 ± 0.69 |
| KTAPGLKCIQIEVWQY | 0.035 ± 0.35 |
| KTFLHSTSYNNKKRWMSLRQ | 0.485 ± 0.66 |
| KTLDLHISFPQDKLFR | -0.382 ± 0.45 |
| KTRHMREDGQCVYKHEMERM | 0.577 ± 0.19 |
| KTWNVCALARGWECEAINVW | -0.264 ± 0.3 |
| KVAVN | 0.453 ± 0.42 |
| KVCVLLSSCIYDNLHVR | 0.402 ± 1.4 |
| KVFGTRPVRYETCRFLRLRS | -0.013 ± 0.34 |
| KVFINVYIKRQRNKCRRSNR | 5.899 ± 0.054 |
| KVKNRAFWPHMSLTYAMVPP | 0.333 ± 0.39 |
| KVLFLTCYTTPSLNNLVFRC | -0.069 ± 0.28 |
| KVLTRPG | -0.213 ± 0.64 |
| KVTMRWV | 2.21 ± 0.27 |
| KVVTGLIYFWCIWCFGTLRV | 0.431 ± 0.9 |
| KWDLRPYFFLMVLEQGCSMW | -0.506 ± 1 |
| KWEYCCLFMLAHVEDHLKGF | 0.59 ± 0.34 |
| KWLPMKMKLWFDNSYGGQWF | -0.265 ± 1.2 |

| Substance | amyloid nucleation score |
| --- | --- |
| KWSSRCQWDWTLLGTCLAL | 0.29 ± 0.3 |
| KWSVSV | -0.32 ± 1.3 |
| KWVKEALIA | -0.463 ± 0.73 |
| KWYNTPNSDWSV | -0.983 ± 1.7 |
| KYCVN | -0.403 ± 0.38 |
| KYENGCTDTWGMTVASPLIK | -0.515 ± 1 |
| KYVCGLTDTVIRGMLKVIRA | 0.559 ± 0.27 |
| LACTYLCWALC | -1.32 ± 0.86 |
| LAEYHYGSMFSLNSTYYNLS | 5.91 ± 0.069 |
| LAFMYVGKYARRGLTIYNLI | -0.335 ± 0.54 |
| LAITDKCSRALSLLSCPDF | 0.265 ± 0.63 |
| LALFIDWQ | 1.53 ± 0.53 |
| LAQSGIDIYLRKGMDARKMR | -0.516 ± 0.32 |
| LARCRWLVKRVCDGNWCCML | 0.569 ± 0.48 |
| LAVFSNVLLYVEDMSALIRG | 0.129 ± 0.2 |
| LAYGWKFDNSCLL | 1.29 ± 0.68 |
| LAYVHTVKVDGPWKHMNVWY | 1.22 ± 0.54 |
| LCAARNFSL | -0.277 ± 0.5 |
| LCCFKSFVSENMN | 6.447 ± 0.05 |
| LCFDVSFRYYGMGYIL | 0.165 ± 0.23 |
| LCFGGRSWSCFVKVKHLFAC | 1.68 ± 0.51 |
| LCFSGD | -0.352 ± 0.99 |
| LCFVPGS | 3.73 ± 0.073 |
| LCGDAPREDYSHGYVLNQVG | 0.352 ± 0.78 |
